The source of these data is article PMC10052518.

For test [1], the target named is hFcRn (human neonatal Fc receptor) (human) (UniProt P55899). In words: SPR; bivalent fit, kd1.
Test [2] shares this target. Nature of the test: SPR; bivalent fit, kd2 (second site).
Test [3] has the same target. Nature of the test: SPR; Bia3000; hFcRn immobilised on CM5 chip (<200 RU); increasing concentrations of antibody injected over 180 s, dissociation 400 s; 25 °C; 50 mM phosphate, 150 mM NaCl, 0.05% P20, pH 7; multi-cycle kinetics, bivalent model fit.
For test [4] the target is unchanged. In words: SPR; Bia3000; hFcRn immobilised on CM5 chip (<200 RU); increasing concentrations of antibody injected over 180 s, dissociation 400 s; 25 °C; 50 mM phosphate, 150 mM NaCl, 0.05% P20, pH 6; multi-cycle kinetics, bivalent model fit.
Test [5] shares this target. Nature of the test: SPR; pH 7.0, bivalent fit, kd1.

Sequence of UniProt P55899 (P55899 24-297, chain 1 of 2): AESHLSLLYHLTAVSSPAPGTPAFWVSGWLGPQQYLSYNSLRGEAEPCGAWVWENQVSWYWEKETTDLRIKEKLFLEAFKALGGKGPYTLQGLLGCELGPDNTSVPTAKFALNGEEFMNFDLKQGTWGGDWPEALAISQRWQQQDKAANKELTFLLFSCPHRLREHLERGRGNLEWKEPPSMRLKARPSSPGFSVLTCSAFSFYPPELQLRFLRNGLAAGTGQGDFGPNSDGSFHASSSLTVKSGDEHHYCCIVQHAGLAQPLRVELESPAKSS
Sequence of UniProt P55899 (P61769 21-119, chain 2 of 2, further chain): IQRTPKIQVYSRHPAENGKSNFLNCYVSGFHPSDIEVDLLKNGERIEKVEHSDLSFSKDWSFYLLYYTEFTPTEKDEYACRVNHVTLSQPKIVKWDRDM

For the substance “B5 (tocilizumab variant T256Y/H285Q/N286D/V308A/N434Y)”, the koff in test [1] came out at 0.0439 s⁻¹; in test [2], 0.000765 s⁻¹. “A3 (tocilizumab variant M252W/M428K/N434W) (antibody)” registered a Kd in test [3] of 570 nM.

For “T8 (tocilizumab variant M252Y/N286E/T307Q/V308P/Q311A/N434Y/Y436V)”, the koff in test [1] was determined as 0.000658 s⁻¹; in test [2] it was 0.0383 s⁻¹.

On to “B5 (tocilizumab variant T256Y/H285Q/N286D/V308A/N434Y) (antibody)”, for which the Kd in test [4] came to 45 nM; in test [3], 620 nM. Take Tocilizumab (antibody): the Kd in test [4] amounted to 380 nM. For “C7 (tocilizumab variant T256E/N286H/K288E/V308P/L309D/N434Y/Y436K)”, the values for the koff in test [1] and in test [2] were 0.0053 s⁻¹ and 6.52e-05 s⁻¹, respectively. “T3 (tocilizumab variant M252Y/T307D/N434Y)” displayed a koff in test [5] of 0.0263 s⁻¹. Regarding “T8 (tocilizumab variant M252Y/N286E/T307Q/V308P/Q311A/N434Y/Y436V) (antibody)”, the Kd in test [4] was determined as 1.3 nM; in test [3], 7.8 nM. The matching figures for “T3 (tocilizumab variant M252Y/T307D/N434Y) (antibody)”: 13 nM and 380 nM. The like results for “C7 (tocilizumab variant T256E/N286H/K288E/V308P/L309D/N434Y/Y436K) (antibody)” were, in that order, 34 nM and 160 nM.
